Values quoted from earlier work, collected in PMC3634864.

Biological target: Hemoglobin (Homo sapiens) (UniProt P69905)
Sequence of UniProt P69905 (P69905 2-142, chain 1 of 2): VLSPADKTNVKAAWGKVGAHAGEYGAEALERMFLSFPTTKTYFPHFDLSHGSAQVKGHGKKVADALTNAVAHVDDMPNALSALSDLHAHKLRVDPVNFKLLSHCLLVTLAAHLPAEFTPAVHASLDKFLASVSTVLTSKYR
Sequence of UniProt P69905 (P68871 2-147, chain 2 of 2, further chain): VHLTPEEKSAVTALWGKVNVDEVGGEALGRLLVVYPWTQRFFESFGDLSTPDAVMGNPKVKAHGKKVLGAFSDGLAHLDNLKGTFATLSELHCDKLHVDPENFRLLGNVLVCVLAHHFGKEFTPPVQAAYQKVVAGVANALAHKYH

Kd: < 1 pM
Substance: Haptoglobin (from UniProt P00738)
